Assay results taken from patent US20230140797A1 (published 2023).

T1: human FcγRIIb extracellular domain with C-terminal His tag (human, UniProt P31994 43-217)
T1 sequence (looked up): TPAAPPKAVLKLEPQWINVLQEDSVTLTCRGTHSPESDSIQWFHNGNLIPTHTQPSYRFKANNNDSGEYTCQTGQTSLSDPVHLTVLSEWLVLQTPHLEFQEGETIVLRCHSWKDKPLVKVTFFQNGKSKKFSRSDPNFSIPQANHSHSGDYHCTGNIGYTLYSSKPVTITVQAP

T2: human FcγRIIb extracellular domain with C-terminal His tag (human, UniProt P31994 43-217)
T2 sequence (looked up): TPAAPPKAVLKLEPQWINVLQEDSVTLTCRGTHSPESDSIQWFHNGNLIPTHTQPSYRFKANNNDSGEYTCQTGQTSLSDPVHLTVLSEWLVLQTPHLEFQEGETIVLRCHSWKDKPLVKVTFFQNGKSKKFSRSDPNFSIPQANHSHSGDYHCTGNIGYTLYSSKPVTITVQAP


Legend:
[1] = biological target: T1, human FcγRIIb extracellular domain with …; assay: SPR
[2] = biological target: T1, human FcγRIIb extracellular domain with …; assay: SPR; remark: listed apart in the source
[3] = biological target: T2, human FcγRIIb extracellular domain with …; assay: SPR Biacore, ratio of KDs

KD (IIaH)/KD (IIb) [1]	KD (IIaR)/KD (IIb) [2]	KD (IIb) of the parent polypeptide/KD (IIb) of the altered polypeptide [3]	Binder
438	26.6	–	IL6R-BP536/IL6R-L (antibody, human IgG1, kappa) heavy: QVQLQESGPGLVKPSETLSLTCAVSGHSISHDHAWSWVRQPPGEGLEWIGFISYSGITNYNPSLQGRVTISRDNSKNTLYLQMNSLRAEDTAVYYCARSLARTTAMDYWGEGTLVTVSSASTKGPSVFPLAPSSKSTSGGTAALGCLVKDYFPEPVTVSWNSGALTSGVHTFPAVLQSSGLYSLSSVVTVPSSSLGTQTYICNVNHKPSNTKVDKKVEPKSCDKTHTCPPCPAPDLLGDDSVFLFPPKPKDTLMISRTPEVTCVVIDVSEEDGEVKFNWYVDGVEVHNAKTKPREEQDNSTYRVVSVLTVLHQDWLNGKEYKCKVSNKGLPRPIEKTISKAKGQPREPQVYTLPPSRDELTKNQVSLTCLVKGFYPSDIAVEWESNGQPENNYKTTPMVLDSDGSFFLYSKLTVDKSRWQQGNVFSCSVMHEALHNHYTQESLSLSP light: not shown
655	44.2	–	IL6R-BP550/IL6R-L (antibody, human IgG1, kappa) heavy: QVQLQESGPGLVKPSETLSLTCAVSGHSISHDHAWSWVRQPPGEGLEWIGFISYSGITNYNPSLQGRVTISRDNSKNTLYLQMNSLRAEDTAVYYCARSLARTTAMDYWGEGTLVTVSSASTKGPSVFPLAPSSKSTSGGTAALGCLVKDYFPEPVTVSWNSGALTSGVHTFPAVLQSSGLYSLSSVVTVPSSSLGTQTYICNVNHKPSNTKVDKKVEPKSCDKTHTCPPCPAPELLGDDSVFLFPPKPKDTLMISRTPEVTCVVIDVGEEDGDVKFNWYVDGVEVHNAKTKPREEQDNSTYRVVSVLTVLHQDWLNGKEYKCKVSNKALPRPIEKTISKAKGQPREPQVYTLPPSRDELTKNQVSLTCLVKGFYPSDIAVEWESNGQPENNYKTTPPVLDSDGSFFLYSKLTVDKSRWQQGNVFSCSVMHEALHNHYTQESLSLSP light: not shown
–	–	2.6 fold (parent IL6R-B3/IL6R-L)	IL6R-2B169/IL6R-L (antibody, human IgG1, kappa) heavy: QVQLQESGPGLVKPSETLSLTCAVSGHSISHDHAWSWVRQPPGEGLEWIGFISYSGITNYNPSLQGRVTISRDNSKNTLYLQMNSLRAEDTAVYYCARSLARTTAMDYWGEGTLVTVSSASTKGPSVFPLAPSSKSTSGGTAALGCLVKDYFPEPVTVSWNSGALTSGVHTFPAVLQSSGLYSLSSVVTVPSSSLGTQTYICNVNHKPSNTKVDKKVEPKSCDKTHTCPPCPAPELLGGDSVFLFPPKPKDTLMISRTPEVTCVVVDVSHEDPEVKFNWYVDGVEVHNAKTKPREEQYNSTYRVVSVLTVLHQDWLNGKEYKCKISNKALPAPIEKTISKAKGQPREPQVYTLPPSRDELTKNQVSLTCLVKGFYPSDIAVEWESNGQPENNYKTTPPVLDSDGSFFLYSKLTVDKSRWQQGNVFSCSVMHEALHNHYTQESLSLSP light: not shown
748	46.1	–	IL6R-BP568/IL6R-L (antibody, human IgG1, kappa) heavy: QVQLQESGPGLVKPSETLSLTCAVSGHSISHDHAWSWVRQPPGEGLEWIGFISYSGITNYNPSLQGRVTISRDNSKNTLYLQMNSLRAEDTAVYYCARSLARTTAMDYWGEGTLVTVSSASTKGPSVFPLAPSSKSTSGGTAALGCLVKDYFPEPVTVSWNSGALTSGVHTFPAVLQSSGLYSLSSVVTVPSSSLGTQTYICNVNHKPSNTKVDKKVEPKSCDKTHTCPPCPAPDLLGGDSVFLFPPKPKDTLMISRTPEVTCVVIDVAEEDGEVKFNWYVDGVEVHNAKTKPREEQYNSTYRVVSVLTVLHQDWLNGKEYKCKVSNKALPAPIEKTISKAKGQPREPQVYTLPPSRDELTKNQVSLTCLVKGFYPSDIAVEWESNGQPENNYKTTPPVLDSDGSFFLYSKLTVDKSRWQQGNVFSCSVMHEALHNHYTQESLSLSP light: not shown
1230	64.4	–	IL6R-BP567/IL6R-L (antibody, human IgG1, kappa) heavy: QVQLQESGPGLVKPSETLSLTCAVSGHSISHDHAWSWVRQPPGEGLEWIGFISYSGITNYNPSLQGRVTISRDNSKNTLYLQMNSLRAEDTAVYYCARSLARTTAMDYWGEGTLVTVSSASTKGPSVFPLAPSSKSTSGGTAALGCLVKDYFPEPVTVSWNSGALTSGVHTFPAVLQSSGLYSLSSVVTVPSSSLGTQTYICNVNHKPSNTKVDKKVEPKSCDKTHTCPPCPAPDLLGGDSVFLFPPKPKDTLMISRTPEVTCVVIDVAEEDGEVKFNWYVDGVEVHNAKTKPREEQDNSTYRVVSVLTVLHQDWLNGKEYKCKVSNKALPAPIEKTISKAKGQPREPQVYTLPPSRDELTKNQVSLTCLVKGFYPSDIAVEWESNGQPENNYKTTPPVLDSDGSFFLYSKLTVDKSRWQQGNVFSCSVMHEALHNHYTQESLSLSP light: not shown
–	–	2.1 fold (parent IL6R-B3/IL6R-L)	IL6R-2B128/IL6R-L (antibody, human IgG1, kappa) heavy: QVQLQESGPGLVKPSETLSLTCAVSGHSISHDHAWSWVRQPPGEGLEWIGFISYSGITNYNPSLQGRVTISRDNSKNTLYLQMNSLRAEDTAVYYCARSLARTTAMDYWGEGTLVTVSSASTKGPSVFPLAPSSKSTSGGTAALGCLVKDYFPEPVTVSWNSGALTSGVHTFPAVLQSSGLYSLSSVVTVPSSSLGTQTYICNVNHKPSNTKVDKKVEPKSCDKTHTCPPCPAPELLGGDSVFLFPPKPKDTLMISRTPEVTCVVVDVSHEDPEVKFNWYVDGVEVHNAKTKPREEQDNSTYRVVSVLTVLHQDWLNGKEYKCKVSNKALPAPIEKTISKAKGQPREPQVYTLPPSRDELTKNQVSLTCLVKGFYPSDIAVEWESNGQPENNYKTTPPVLDSDGSFFLYSKLTVDKSRWQQGNVFSCSVMHEALHNHYTQESLSLSP light: not shown
856	41.5	–	IL6R-BP565/IL6R-L (antibody, human IgG1, kappa) heavy: QVQLQESGPGLVKPSETLSLTCAVSGHSISHDHAWSWVRQPPGEGLEWIGFISYSGITNYNPSLQGRVTISRDNSKNTLYLQMNSLRAEDTAVYYCARSLARTTAMDYWGEGTLVTVSSASTKGPSVFPLAPSSKSTSGGTAALGCLVKDYFPEPVTVSWNSGALTSGVHTFPAVLQSSGLYSLSSVVTVPSSSLGTQTYICNVNHKPSNTKVDKKVEPKSCDKTHTCPPCPAPDLLGDDSVFLFPPKPKDTLMISRTPEVTCVVVDVAEEDGEVKFNWYVDGVEVHNAKTKPREEQDNSTYRVVSVLTVLHQDWLNGKEYKCKVSNKALPRPIEKTISKAKGQPREPQVYTLPPSRDELTKNQVSLTCLVKGFYPSDIAVEWESNGQPENNYKTTPPVLDSDGSFFLYSKLTVDKSRWQQGNVFSCSVMHEALHNHYTQESLSLSP light: not shown
–	–	4 fold (parent IL6R-B3/IL6R-L)	IL6R-2B172/IL6R-L (antibody, human IgG1, kappa) heavy: QVQLQESGPGLVKPSETLSLTCAVSGHSISHDHAWSWVRQPPGEGLEWIGFISYSGITNYNPSLQGRVTISRDNSKNTLYLQMNSLRAEDTAVYYCARSLARTTAMDYWGEGTLVTVSSASTKGPSVFPLAPSSKSTSGGTAALGCLVKDYFPEPVTVSWNSGALTSGVHTFPAVLQSSGLYSLSSVVTVPSSSLGTQTYICNVNHKPSNTKVDKKVEPKSCDKTHTCPPCPAPELLGGDSVFLFPPKPKDTLMISRTPEVTCVVVDVSHEDPEVKFNWYVDGVEVHNAKTKPREEQYNSTYRVVSVLTVLHQDWLNGKEYKCKMSNKALPAPIEKTISKAKGQPREPQVYTLPPSRDELTKNQVSLTCLVKGFYPSDIAVEWESNGQPENNYKTTPPVLDSDGSFFLYSKLTVDKSRWQQGNVFSCSVMHEALHNHYTQESLSLSP light: not shown
–	–	3.3 fold (parent IL6R-B3/IL6R-L)	IL6R-2B002/IL6R-L (antibody, human IgG1, kappa) heavy: QVQLQESGPGLVKPSETLSLTCAVSGHSISHDHAWSWVRQPPGEGLEWIGFISYSGITNYNPSLQGRVTISRDNSKNTLYLQMNSLRAEDTAVYYCARSLARTTAMDYWGEGTLVTVSSASTKGPSVFPLAPSSKSTSGGTAALGCLVKDYFPEPVTVSWNSGALTSGVHTFPAVLQSSGLYSLSSVVTVPSSSLGTQTYICNVNHKPSNTKVDKKVEPKSCDKTHTCPPCPAPDLLGGDSVFLFPPKPKDTLMISRTPEVTCVVVDVSHEDPEVKFNWYVDGVEVHNAKTKPREEQYNSTYRVVSVLTVLHQDWLNGKEYKCKVSNKALPAPIEKTISKAKGQPREPQVYTLPPSRDELTKNQVSLTCLVKGFYPSDIAVEWESNGQPENNYKTTPPVLDSDGSFFLYSKLTVDKSRWQQGNVFSCSVMHEALHNHYTQESLSLSP light: not shown
436	38.1	–	IL6R-BP551/IL6R-L (antibody, human IgG1, kappa) heavy: QVQLQESGPGLVKPSETLSLTCAVSGHSISHDHAWSWVRQPPGEGLEWIGFISYSGITNYNPSLQGRVTISRDNSKNTLYLQMNSLRAEDTAVYYCARSLARTTAMDYWGEGTLVTVSSASTKGPSVFPLAPSSKSTSGGTAALGCLVKDYFPEPVTVSWNSGALTSGVHTFPAVLQSSGLYSLSSVVTVPSSSLGTQTYICNVNHKPSNTKVDKKVEPKSCDKTHTCPPCPAPELLGDDSVFLFPPKPKDTLMISRTPEVTCVVIDVSEEDGDVKFNWYVDGVEVHNAKTKPREEQDNSTYRVVSVLTVLHQDWLNGKEYKCKVSNKALPRPIEKTISKAKGQPREPQVYTLPPSRDELTKNQVSLTCLVKGFYPSDIAVEWESNGQPENNYKTTPPVLDSDGSFFLYSKLTVDKSRWQQGNVFSCSVMHEALHNHYTQESLSLSP light: not shown
667	38	–	IL6R-BP539/IL6R-L (antibody, human IgG1, kappa) heavy: QVQLQESGPGLVKPSETLSLTCAVSGHSISHDHAWSWVRQPPGEGLEWIGFISYSGITNYNPSLQGRVTISRDNSKNTLYLQMNSLRAEDTAVYYCARSLARTTAMDYWGEGTLVTVSSASTKGPSVFPLAPSSKSTSGGTAALGCLVKDYFPEPVTVSWNSGALTSGVHTFPAVLQSSGLYSLSSVVTVPSSSLGTQTYICNVNHKPSNTKVDKKVEPKSCDKTHTCPPCPAPELLGDDSVFLFPPKPKDTLMISRTPEVTCVVIDVGEEDGPVKFNWYVDGVEVHNAKTKPREEQDNSTYRVVSVLTVLHQDWLNGKEYKCKVSNKALPRPIEKTISKAKGQPREPQVYTLPPSRDELTKNQVSLTCLVKGFYPSDIAVEWESNGQPENNYKTTPPVLDSDGSFFLYSKLTVDKSRWQQGNVFSCSVMHEALHNHYTQESLSLSP light: not shown
